Literature values in PMC4409539 (Cancer gene therapy, 2015).

How the values were obtained:
pancreatic tumor cells = pancreatic tumor cells infected at 25 pfu/cell with bCD
[1] = yCD versus bCD

Molecule	5-FC conversion (pancreatic tumor cells)	Km for 5-FC, fold lower than bCD [1]	thermal stability compared with bCD [1]
bacterial cytosine deaminase [bCD]	0.2 to 0.7 pmol/min/mg		
yeast cytosine deaminase (protein, UniProt Q12178 1-158, looked up) Cytosine deaminase: MVTGGMASKWDQKGMDIAYEEAALGYKEGGVPIGGCLINNKDGSVLGRGHNMRFQKGSATLHGEISTLENCGRLEGKVYKDTTLYTTLSPCDMCTGAIIMYGIPRCVVGENVNFKSKGEKYLQTRGHEVVVVDDERCKKIMKQFIDERPQDWFEDIGE		22 fold	more thermolabile than bCD
